Laboratory results: doi:10.1101/2021.11.05.467329
“And” between values parts separate entries of the source, which are not always exact repeats. Equal entries are not always repeated.

Legend:
Test in all cases: SEC
[1] = biological target: Plasmodium falciparum glyceraldehyde 3-phosphate dehydrogenase I209T variant (recombinant) (Plasmodium falciparum) (UniProt Q8IKK7)
[2] = biological target: Plasmodium falciparum glyceraldehyde 3-phosphate dehydrogenase V238A variant (recombinant) (Plasmodium falciparum) (UniProt Q8IKK7)
[3] = biological target: Plasmodium falciparum glyceraldehyde 3-phosphate dehydrogenase, wild type (recombinant) (Plasmodium falciparum) (UniProt Q8IKK7)

“Plasmodium falciparum glyceraldehyde 3-phosphate dehydrogenase I209T variant (recombinant) (from UniProt Q8IKK7 4-335) (enzyme)” was tested. Which stoichiometry N [1] did it give?
Its stoichiometry N is 4 and 2.

With “Plasmodium falciparum glyceraldehyde 3-phosphate dehydrogenase V238A variant (recombinant) (from UniProt Q8IKK7 4-335) (enzyme)” as the substance, how does the stoichiometry N [2] read?
Its stoichiometry N is 4 and 2.

With “Plasmodium falciparum glyceraldehyde 3-phosphate dehydrogenase, wild type (recombinant) (from UniProt Q8IKK7 4-335) (enzyme)” as the substance, how does the stoichiometry N [3] read?
The stoichiometry N was 4.
